Assay results published in paper PMC9634612, “Rapid and efficient room-temperature serial synchrotron crystallography using the CFEL TapeDrive” (IUCrJ, 2022).

Biological target: the molecule itself
Test: crystal structure; room-temperature (293 K) serial synchrotron crystallography with the CFEL TapeDrive, 2.3 Å, space group I222, one monomer in the asymmetric unit, tetramer generated by symmetry; UOX with 5PMUA bound

B1: Aspergillus flavus urate oxidase (enzyme)
chain: MSAVKAARYGKDNVRVYKVHKDEKTGVQTVYEMTVCVLLEGEIETSYTKADNSVIVATDSIKNTIYITAKQNPVTPPELFGSILGTHFIEKYNHIHAAHVNIVCHRWTRMDIDGKPHPHSFIRDSEEKRNVQVDVVEGKGIDIKSSLSGLTVLKSTNSQFWGFLRDEYTTLKETWDRILSTDVDATWQWKNFSGLQEVRSHVPKFDATWATAREVTLKTFAEDNSASVQATMYKMAEQILARQQLIETVEYSLPNKHYFEIDLSWHKGLQNTGKNAEVFAPQSDPNGLIKCTVGRSSLKSKL
notes: Urate oxidase of Aspergillus flavus, untagged, from a codon-optimized synthetic cDNA in pET24b; One monomer in the asymmetric unit; the tetramer is generated by crystal symmetry; also called UOX; cofactor-free A. flavus urate oxidase
In the case of B1, the “stoichiometry N” value is reported as 4.
